From article PMC4591687

Molecular target: PDI C56A-FLAG (human) (UniProt P07237)
Experiment: co-IP

Sequence of UniProt P07237 (P07237 18-508 C56A): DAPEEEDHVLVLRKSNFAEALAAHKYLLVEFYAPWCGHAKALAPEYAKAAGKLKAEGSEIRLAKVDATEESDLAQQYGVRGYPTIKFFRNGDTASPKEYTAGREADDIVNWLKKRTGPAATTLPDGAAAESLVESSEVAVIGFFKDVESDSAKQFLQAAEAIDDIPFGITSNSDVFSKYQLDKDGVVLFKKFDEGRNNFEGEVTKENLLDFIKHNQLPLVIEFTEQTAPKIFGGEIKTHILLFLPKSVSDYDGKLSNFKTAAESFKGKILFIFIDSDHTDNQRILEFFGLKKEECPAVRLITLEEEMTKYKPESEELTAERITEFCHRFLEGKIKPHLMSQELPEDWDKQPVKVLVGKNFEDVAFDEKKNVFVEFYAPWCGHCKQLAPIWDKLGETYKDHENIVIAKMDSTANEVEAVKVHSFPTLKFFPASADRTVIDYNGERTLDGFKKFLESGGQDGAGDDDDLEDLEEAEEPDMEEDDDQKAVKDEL

stoichiometry N (proinsulin per PDI): 1
Substance: Myc-epitope-tagged human C(A7)Y Akita mutant proinsulin (natural protein)
